# According to PMC10397247:
# T1: 4H687-bA
# T1 chain: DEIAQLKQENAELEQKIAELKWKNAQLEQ
# T2: 4H717-bA
# T2 chain: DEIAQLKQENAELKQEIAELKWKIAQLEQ
# T3: 4H72-bA
# T3 chain: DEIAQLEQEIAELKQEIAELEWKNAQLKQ
# T4: 4H754-bA
# T4 chain: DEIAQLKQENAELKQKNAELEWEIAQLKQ
# T5: 4H797-bA
# T5 chain: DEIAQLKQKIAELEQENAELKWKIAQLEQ
# T6: 4H883-bA
# T6 chain: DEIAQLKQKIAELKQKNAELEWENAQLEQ
# T7: 4H908-bA
# T7 chain: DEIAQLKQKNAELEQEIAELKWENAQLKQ
# T8: 4H918-bA
# T8 chain: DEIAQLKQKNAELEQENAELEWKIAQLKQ
# T9: 4H953-bA
# T9 chain: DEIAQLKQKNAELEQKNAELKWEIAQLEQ
# T10: 4H967-bA
# T10 chain: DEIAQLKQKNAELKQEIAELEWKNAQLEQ
# T11: O13-bH
# T11 chain: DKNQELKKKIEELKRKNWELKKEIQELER
# T12: 4H2619-bA
# T12 chain: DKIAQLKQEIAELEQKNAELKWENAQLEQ
# T13: 4H2691-bA
# T13 chain: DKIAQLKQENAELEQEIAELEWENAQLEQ
# T14: 4H2745-bA
# T14 chain: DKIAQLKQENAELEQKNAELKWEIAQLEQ
# T15: 4H3070-bA
# T15 chain: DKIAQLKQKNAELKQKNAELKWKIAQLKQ
# T16: 4H3129-bN
# T16 chain: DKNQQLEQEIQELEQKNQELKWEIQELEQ
# T17: 4H342-bA
# T17 chain: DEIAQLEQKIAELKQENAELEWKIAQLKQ
# T18: 4H344-bA
# T18 chain: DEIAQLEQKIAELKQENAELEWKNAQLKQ
# T19: 4H363-bA
# T19 chain: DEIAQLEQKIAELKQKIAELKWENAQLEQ
# T20: 4H3632-bA
# T20 chain: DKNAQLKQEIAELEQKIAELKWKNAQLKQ
# T21: 4H3907-bA
# T21 chain: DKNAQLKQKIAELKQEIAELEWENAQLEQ
# T22: 4H3961-bA
# T22 chain: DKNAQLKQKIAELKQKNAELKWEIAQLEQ
# T23: 4H470-bA
# T23 chain: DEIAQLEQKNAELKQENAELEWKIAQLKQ
# T24: 4H496-bA
# T24 chain: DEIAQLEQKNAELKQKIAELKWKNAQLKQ
# T25: 4H1845-bA
# T25 chain: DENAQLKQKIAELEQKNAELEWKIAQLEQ
# T26: 4H2442-bA
# T26 chain: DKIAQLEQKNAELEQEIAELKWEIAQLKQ
# T27: 4H2576-bA
# T27 chain: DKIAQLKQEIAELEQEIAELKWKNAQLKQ
# T28: 4H2610-bA
# T28 chain: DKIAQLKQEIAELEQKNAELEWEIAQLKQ
# T29: 4H2618-bA
# T29 chain: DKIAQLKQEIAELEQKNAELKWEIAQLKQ
# T30: 4H2667-bA
# T30 chain: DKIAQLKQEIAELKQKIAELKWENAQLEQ
# T31: 4H2697-bA
# T31 chain: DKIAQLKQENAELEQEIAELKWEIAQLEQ
# T32: 4H2729-bA
# T32 chain: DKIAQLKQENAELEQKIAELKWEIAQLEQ
# T33: 4H3010-bN
# T33 chain: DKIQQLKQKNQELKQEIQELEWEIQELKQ
# T34: 4H3112-bA
# T34 chain: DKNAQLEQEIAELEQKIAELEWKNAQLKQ
# T35: 4H3185-bA
# T35 chain: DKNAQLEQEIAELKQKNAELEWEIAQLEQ
# T36: 4H3189-bA
# T36 chain: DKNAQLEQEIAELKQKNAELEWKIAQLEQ
# T37: 4H331-bA
# T37 chain: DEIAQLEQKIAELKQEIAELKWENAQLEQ
# T38: 4H3354-bA
# T38 chain: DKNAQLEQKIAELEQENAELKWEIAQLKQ
# T39: 4H338-bA
# T39 chain: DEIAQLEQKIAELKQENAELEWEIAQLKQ
# T40: 4H3427-bA
# T40 chain: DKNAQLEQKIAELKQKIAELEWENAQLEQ
# T41: 4H3606-bA
# T41 chain: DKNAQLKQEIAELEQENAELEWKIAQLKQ
# T42: 4H370-bA
# T42 chain: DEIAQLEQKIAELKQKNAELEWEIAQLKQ
# T43: 4H3782-bA
# T43 chain: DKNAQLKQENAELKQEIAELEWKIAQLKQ
# T44: 4H3843-bA
# T44 chain: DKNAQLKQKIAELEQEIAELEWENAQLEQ
# T45: 4H3855-bA
# T45 chain: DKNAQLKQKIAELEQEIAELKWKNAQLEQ
# T46: 4H4001-bA
# T46 chain: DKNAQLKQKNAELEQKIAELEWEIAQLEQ
# T47: 4H454-bA
# T47 chain: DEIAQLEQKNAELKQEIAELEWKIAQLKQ
# T48: 4H462-bA
# T48 chain: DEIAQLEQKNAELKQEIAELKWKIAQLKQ
# T49: 4H568-bA
# T49 chain: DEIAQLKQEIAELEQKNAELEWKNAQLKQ
# T50: 4H607-bA
# T50 chain: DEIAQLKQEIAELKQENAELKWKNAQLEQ
# T51: 4H607-bN
# T51 chain: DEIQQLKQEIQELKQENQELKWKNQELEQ
# T52: 4H3497-bA
# T52 chain: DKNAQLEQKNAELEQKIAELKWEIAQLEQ
# Legend:
# Assay in all cases: two-hybrid library CCNG1;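 note: natural log of median RNA to DNA barcode read ratio; higher means stronger binding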
# [1] = biological target: T1, 4H687-bA
# [2] = biological target: T2, 4H717-bA
# [3] = biological target: T3, 4H72-bA
# [4] = biological target: T4, 4H754-bA
# [5] = biological target: T5, 4H797-bA
# [6] = biological target: T6, 4H883-bA
# [7] = biological target: T7, 4H908-bA
# [8] = biological target: T8, 4H918-bA
# [9] = biological target: T9, 4H953-bA
# [10] = biological target: T10, 4H967-bA
# [11] = biological target: T11, O13-bH
# [12] = biological target: T12, 4H2619-bA
# [13] = biological target: T13, 4H2691-bA
# [14] = biological target: T14, 4H2745-bA
# [15] = biological target: T15, 4H3070-bA
# [16] = biological target: T16, 4H3129-bN
# [17] = biological target: T17, 4H342-bA
# [18] = biological target: T18, 4H344-bA
# [19] = biological target: T19, 4H363-bA
# [20] = biological target: T20, 4H3632-bA
# [21] = biological target: T21, 4H3907-bA
# [22] = biological target: T22, 4H3961-bA
# [23] = biological target: T23, 4H470-bA
# [24] = biological target: T24, 4H496-bA
# [25] = biological target: T25, 4H1845-bA
# [26] = biological target: T26, 4H2442-bA
# [27] = biological target: T27, 4H2576-bA
# [28] = biological target: T28, 4H2610-bA
# [29] = biological target: T29, 4H2618-bA
# [30] = biological target: T30, 4H2667-bA
# [31] = biological target: T31, 4H2697-bA
# [32] = biological target: T32, 4H2729-bA
# [33] = biological target: T33, 4H3010-bN
# [34] = biological target: T34, 4H3112-bA
# [35] = biological target: T35, 4H3185-bA
# [36] = biological target: T36, 4H3189-bA
# [37] = biological target: T37, 4H331-bA
# [38] = biological target: T38, 4H3354-bA
# [39] = biological target: T39, 4H338-bA
# [40] = biological target: T40, 4H3427-bA
# [41] = biological target: T41, 4H3606-bA
# [42] = biological target: T42, 4H370-bA
# [43] = biological target: T43, 4H3782-bA
# [44] = biological target: T44, 4H3843-bA
# [45] = biological target: T45, 4H3855-bA
# [46] = biological target: T46, 4H4001-bA
# [47] = biological target: T47, 4H454-bA
# [48] = biological target: T48, 4H462-bA
# [49] = biological target: T49, 4H568-bA
# [50] = biological target: T50, 4H607-bA
# [51] = biological target: T51, 4H607-bN
# [52] = biological target: T52, 4H3497-bA
interaction score [1],interaction score [2],interaction score [3],interaction score [4],interaction score [5],interaction score [6],interaction score [7],interaction score [8],interaction score [9],interaction score [10],interaction score [26],interaction score [27],interaction score [29],interaction score [30],interaction score [32],interaction score [34],interaction score [35],interaction score [37],interaction score [38],interaction score [39],Binder,also measured
-1.03,-1.32,-0.595,-0.491,-0.624,-1.57,-0.749,-0.947,-1.51,1.07,,,,,,,,,,,DEIAQLKQENAELEQKIAELKWKNAQLEQ [4H687-bA],interaction score [11]: 1.07
,,,,,,,,,,,,,,,,,,,,DKIAQLKQEIAELEQKNAELKWENAQLEQ [4H2619-bA],interaction score [12]: 0.00432; interaction score [13]: -0.41; interaction score [14]: -0.393; interaction score [15]: -0.983; interaction score [16]: -2.48; interaction score [17]: 1.56; interaction score [18]: 2.12; interaction score [19]: -0.409; interaction score [20]: -1.09; interaction score [21]: -0.505; interaction score [22]: -0.981; interaction score [23]: -0.832; interaction score [24]: -0.573
-0.612,-0.827,-0.517,-0.405,-0.424,-0.795,-1.42,-0.752,-1.23,-0.617,-0.649,0.69,-0.329,0.247,-0.636,-0.795,-0.124,-0.344,-0.823,-1.75,DENAQLKQKIAELEQKNAELEWKIAQLEQ [4H1845-bA],interaction score [25]: 0.564; interaction score [28]: -0.596; interaction score [31]: -0.601; interaction score [33]: 0.0715; interaction score [36]: -0.547; interaction score [40]: -0.783; interaction score [41]: -1.46; interaction score [42]: -0.74; interaction score [43]: -0.678; interaction score [44]: -0.572; interaction score [45]: -1.1; interaction score [46]: -0.341; interaction score [47]: -0.0982; interaction score [48]: -0.986; interaction score [49]: -0.306; interaction score [50]: -1.7; interaction score [51]: -0.945
-0.225,-0.902,-1.46,0.0444,-1.24,-1.15,-0.745,-1.46,-1.68,-1.64,1.33,-0.202,0.238,-0.365,1.52,-0.0125,-0.212,-1.21,-0.829,-0.0859,DKIAQLEQKNAELEQEIAELKWEIAQLKQ [4H2442-bA],interaction score [40]: 0.0308; interaction score [52]: 1.63; interaction score [43]: -1.13; interaction score [45]: -0.595; interaction score [46]: 0.5; interaction score [47]: 0.831; interaction score [49]: -1.89; interaction score [50]: -1.4
